Measured values taken from the supplement of paper PMC10065799, “High-throughput profiling of sequence recognition by tyrosine kinases and SH2 domains using bacterial peptide display” (eLife, 2023).

Assays:
AncSZ = experiment: phosphorylation enrichment, bacterial display (enrichment ratio); higher = better substrate or ligand; peptides without Tyr show the background
EPHB1 = EPHB1 (UniProt P54762); experiment: as above
EPHB2 = EPHB2 (UniProt P29323); experiment: as above
FGFR1 = FGFR1 (UniProt P11362); experiment: as above
Chain of FGFR1 (P11362 whole entry, looked up): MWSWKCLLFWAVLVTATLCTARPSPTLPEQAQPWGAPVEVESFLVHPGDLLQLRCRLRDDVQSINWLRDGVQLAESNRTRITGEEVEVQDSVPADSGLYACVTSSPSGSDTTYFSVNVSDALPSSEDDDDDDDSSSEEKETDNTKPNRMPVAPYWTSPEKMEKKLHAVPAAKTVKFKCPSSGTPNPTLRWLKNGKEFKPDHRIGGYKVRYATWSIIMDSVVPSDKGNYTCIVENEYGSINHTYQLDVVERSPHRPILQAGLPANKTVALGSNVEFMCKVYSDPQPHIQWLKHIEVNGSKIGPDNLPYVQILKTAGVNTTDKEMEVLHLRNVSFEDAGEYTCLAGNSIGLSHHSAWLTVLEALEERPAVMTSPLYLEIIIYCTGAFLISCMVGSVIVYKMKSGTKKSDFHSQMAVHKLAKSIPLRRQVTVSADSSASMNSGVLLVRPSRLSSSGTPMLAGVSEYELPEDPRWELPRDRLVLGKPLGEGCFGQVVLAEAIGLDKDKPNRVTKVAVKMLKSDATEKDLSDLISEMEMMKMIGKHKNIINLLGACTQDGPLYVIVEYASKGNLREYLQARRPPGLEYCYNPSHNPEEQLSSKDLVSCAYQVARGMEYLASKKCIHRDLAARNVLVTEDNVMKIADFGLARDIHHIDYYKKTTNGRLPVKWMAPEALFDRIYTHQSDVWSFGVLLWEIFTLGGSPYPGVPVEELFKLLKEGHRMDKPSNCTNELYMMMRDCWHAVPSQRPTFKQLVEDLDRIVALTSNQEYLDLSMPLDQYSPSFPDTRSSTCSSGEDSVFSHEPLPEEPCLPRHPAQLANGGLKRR

FGFR3 = FGFR3 (UniProt P22607); experiment: as above
Fer (mouse) = experiment: as above
Fes = Fes (UniProt P07332); experiment: as above
Fyn = Fyn (UniProt P06241); experiment: as above
Chain of Fyn (P06241 whole entry, looked up): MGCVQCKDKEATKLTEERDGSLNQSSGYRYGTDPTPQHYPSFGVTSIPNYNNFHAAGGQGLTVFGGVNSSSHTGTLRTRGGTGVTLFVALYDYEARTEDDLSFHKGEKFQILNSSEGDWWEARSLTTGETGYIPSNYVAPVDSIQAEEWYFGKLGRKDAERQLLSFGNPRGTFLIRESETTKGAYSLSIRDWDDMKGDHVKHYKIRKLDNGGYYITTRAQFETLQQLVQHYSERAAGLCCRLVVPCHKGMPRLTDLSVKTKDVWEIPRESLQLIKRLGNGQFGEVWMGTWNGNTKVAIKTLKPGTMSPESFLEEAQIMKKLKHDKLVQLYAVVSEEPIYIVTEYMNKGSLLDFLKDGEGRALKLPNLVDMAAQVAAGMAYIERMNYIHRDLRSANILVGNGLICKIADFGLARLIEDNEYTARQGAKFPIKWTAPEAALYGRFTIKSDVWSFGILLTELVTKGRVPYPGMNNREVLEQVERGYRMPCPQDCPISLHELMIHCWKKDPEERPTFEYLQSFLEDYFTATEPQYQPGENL

Hck = Hck (UniProt P08631); experiment: as above
Chain of Hck (P08631 whole entry, looked up): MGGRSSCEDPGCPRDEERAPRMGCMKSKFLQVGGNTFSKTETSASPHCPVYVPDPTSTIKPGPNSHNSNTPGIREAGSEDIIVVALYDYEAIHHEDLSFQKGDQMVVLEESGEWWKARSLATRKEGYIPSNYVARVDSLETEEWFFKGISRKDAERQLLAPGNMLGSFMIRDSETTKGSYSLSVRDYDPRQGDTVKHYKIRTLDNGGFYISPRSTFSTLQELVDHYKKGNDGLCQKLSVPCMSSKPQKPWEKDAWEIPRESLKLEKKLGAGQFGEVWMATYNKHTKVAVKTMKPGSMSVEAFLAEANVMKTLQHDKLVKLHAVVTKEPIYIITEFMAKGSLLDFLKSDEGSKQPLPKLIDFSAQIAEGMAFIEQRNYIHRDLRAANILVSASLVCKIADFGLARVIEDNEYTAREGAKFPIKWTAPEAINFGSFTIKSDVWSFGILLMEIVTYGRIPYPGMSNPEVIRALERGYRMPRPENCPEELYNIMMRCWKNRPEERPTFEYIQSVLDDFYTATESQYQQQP

Jak2 = Jak2 (UniProt O60674); experiment: as above
Chain of Jak2 (O60674 whole entry, looked up): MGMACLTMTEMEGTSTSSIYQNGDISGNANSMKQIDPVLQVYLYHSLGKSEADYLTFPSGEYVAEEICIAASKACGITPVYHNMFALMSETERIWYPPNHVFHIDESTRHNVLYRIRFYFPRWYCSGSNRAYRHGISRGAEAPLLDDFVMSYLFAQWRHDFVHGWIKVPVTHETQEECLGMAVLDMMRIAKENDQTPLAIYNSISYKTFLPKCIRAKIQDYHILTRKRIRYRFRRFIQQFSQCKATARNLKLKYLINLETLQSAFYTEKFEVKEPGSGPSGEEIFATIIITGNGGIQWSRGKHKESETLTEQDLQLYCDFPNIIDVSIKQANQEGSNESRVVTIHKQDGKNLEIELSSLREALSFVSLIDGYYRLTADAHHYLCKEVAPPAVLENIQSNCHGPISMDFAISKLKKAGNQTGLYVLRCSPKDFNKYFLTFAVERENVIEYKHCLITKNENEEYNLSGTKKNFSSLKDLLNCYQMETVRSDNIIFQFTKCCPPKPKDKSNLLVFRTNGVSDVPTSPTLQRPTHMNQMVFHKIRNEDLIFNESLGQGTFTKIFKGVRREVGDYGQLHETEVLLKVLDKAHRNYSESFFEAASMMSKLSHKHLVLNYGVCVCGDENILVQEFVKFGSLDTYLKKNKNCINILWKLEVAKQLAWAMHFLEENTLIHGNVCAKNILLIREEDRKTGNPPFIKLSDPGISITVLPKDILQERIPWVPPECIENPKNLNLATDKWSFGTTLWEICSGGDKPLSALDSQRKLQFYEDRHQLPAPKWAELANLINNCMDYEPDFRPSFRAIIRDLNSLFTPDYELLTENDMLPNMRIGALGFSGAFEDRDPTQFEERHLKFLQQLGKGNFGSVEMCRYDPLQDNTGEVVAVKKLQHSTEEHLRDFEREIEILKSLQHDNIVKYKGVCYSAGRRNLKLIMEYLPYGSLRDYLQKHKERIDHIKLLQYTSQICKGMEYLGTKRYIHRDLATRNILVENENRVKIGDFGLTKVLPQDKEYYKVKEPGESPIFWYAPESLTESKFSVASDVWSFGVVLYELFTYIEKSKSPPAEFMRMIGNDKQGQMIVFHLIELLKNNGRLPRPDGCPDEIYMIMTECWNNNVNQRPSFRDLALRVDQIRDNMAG

MERTK = MERTK (UniProt Q12866); experiment: as above
Chain of MERTK (Q12866 whole entry, looked up): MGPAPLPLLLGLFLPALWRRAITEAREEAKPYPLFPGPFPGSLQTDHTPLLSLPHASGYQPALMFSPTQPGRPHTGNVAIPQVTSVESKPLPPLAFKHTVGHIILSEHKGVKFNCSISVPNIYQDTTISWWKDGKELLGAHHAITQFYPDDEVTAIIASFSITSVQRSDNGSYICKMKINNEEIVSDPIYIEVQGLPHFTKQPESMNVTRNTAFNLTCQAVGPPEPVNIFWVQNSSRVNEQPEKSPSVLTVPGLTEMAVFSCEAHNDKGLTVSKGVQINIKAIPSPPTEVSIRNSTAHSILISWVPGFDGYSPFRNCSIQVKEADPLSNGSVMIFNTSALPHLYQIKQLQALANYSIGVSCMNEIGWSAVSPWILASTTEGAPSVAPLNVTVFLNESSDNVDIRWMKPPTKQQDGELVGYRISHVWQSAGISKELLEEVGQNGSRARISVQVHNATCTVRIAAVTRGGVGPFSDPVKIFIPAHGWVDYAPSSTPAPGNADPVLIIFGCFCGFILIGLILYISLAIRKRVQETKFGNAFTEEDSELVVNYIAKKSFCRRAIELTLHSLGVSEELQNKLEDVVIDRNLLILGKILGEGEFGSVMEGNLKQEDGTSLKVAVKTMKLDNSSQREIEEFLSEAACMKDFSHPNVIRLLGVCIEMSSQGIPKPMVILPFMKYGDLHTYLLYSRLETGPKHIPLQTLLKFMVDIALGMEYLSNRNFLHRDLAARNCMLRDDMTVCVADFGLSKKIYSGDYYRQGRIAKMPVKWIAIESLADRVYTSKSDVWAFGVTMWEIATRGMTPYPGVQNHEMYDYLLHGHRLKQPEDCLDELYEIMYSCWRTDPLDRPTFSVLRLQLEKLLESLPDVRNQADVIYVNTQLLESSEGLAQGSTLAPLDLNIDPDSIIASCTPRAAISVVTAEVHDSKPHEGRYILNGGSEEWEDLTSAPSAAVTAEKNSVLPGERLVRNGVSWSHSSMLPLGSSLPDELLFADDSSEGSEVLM

c-Abl (mouse) = experiment: as above
c-Src = experiment: as above
Grb2 SH2 = Grb2 SH2 (UniProt P62993); experiment: SH2 binding enrichment of the phosphorylated peptide, bacterial display (enrichment ratio); higher = better substrate or ligand; peptides without Tyr show the background
SHP2-C SH2 = experiment: as above
c-Src SH2 = experiment: as above
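Throughout, for SH2 binding enrichment of the phosphorylated peptide, bacterial display: peptide library displayed on the E. coli surface as eCPX fusions, selected cells deep-sequenced, score is each peptide's frequency after selection divided by its frequency in the input.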
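Throughout, for phosphorylation enrichment, bacterial display: 11-residue human phosphosite peptides and single-mutation variants displayed on the E. coli surface, counted by deep sequencing, each peptide's frequency after selection divided by its frequency in the unselected input library; frequency after pTyr selection over input frequency; kinase dosed for 20-30% of maximal phosphorylation in three min.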

Chain of EPHB1 (P54762 whole entry, looked up): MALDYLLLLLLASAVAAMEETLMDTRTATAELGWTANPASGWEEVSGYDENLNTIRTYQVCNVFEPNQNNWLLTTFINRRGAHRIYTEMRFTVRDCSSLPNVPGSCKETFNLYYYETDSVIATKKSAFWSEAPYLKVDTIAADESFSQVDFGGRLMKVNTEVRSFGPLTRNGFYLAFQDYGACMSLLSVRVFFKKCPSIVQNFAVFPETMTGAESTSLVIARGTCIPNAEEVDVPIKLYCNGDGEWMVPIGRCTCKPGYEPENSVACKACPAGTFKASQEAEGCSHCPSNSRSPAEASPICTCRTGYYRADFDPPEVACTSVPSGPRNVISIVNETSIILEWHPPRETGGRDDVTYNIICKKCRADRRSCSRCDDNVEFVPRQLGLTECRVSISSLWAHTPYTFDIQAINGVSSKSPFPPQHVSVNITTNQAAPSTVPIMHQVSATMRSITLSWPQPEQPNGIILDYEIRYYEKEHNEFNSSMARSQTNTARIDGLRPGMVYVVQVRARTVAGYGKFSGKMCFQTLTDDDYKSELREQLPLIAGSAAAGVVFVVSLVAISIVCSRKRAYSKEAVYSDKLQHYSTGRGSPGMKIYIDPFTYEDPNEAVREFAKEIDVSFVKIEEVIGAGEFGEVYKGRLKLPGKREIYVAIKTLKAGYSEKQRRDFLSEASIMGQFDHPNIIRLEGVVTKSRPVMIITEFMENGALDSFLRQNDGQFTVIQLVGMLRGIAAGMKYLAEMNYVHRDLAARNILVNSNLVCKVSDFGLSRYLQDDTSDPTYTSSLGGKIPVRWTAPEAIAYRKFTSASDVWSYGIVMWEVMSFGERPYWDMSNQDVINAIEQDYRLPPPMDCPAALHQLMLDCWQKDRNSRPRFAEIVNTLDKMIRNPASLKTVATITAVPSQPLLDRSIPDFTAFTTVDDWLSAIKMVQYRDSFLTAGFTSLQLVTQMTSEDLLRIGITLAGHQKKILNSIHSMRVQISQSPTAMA

SH2 binding enrichment (Grb2 SH2) | SH2 binding enrichment (SHP2-C SH2) | SH2 binding enrichment (c-Src SH2) | Sequence | phosphorylation enrichment (AncSZ) | phosphorylation enrichment (EPHB1) | phosphorylation enrichment (EPHB2) | phosphorylation enrichment (FGFR1) | phosphorylation enrichment (FGFR3) | phosphorylation enrichment (Fer (mouse)) | phosphorylation enrichment (Fes) | phosphorylation enrichment (Fyn) | phosphorylation enrichment (Hck) | phosphorylation enrichment (Jak2) | phosphorylation enrichment (MERTK) | phosphorylation enrichment (c-Abl (mouse)) | phosphorylation enrichment (c-Src)
0.845 | 0.742 | 0.762 | KLIMEYLPYGS [JAK2_Y931] | 0.989 | 0.493 | 0.632 | 0.543 | 0.68 | 0.405 | 1.02 | 0.518 | 0.51 | 0.945 | 0.395 | 0.62 | 0.564
0.7 | 0.553 | 0.423 | QTEAEYRFIYM [PTPN11_Y511_Q510E] | 1.55 | 1.09 | 0.65 | 4.4 | 3.09 | 1.11 | 1.86 | 0.828 | 0.886 | 1.51 | 0.641 | 1.26 | 0.878
2.46 | 0.949 | 0.578 | SLMNQYVNKEF [RAB7A_Y28_K32E] | 0.58 | 0.392 | 0.554 | 0.373 | 0.568 | 0.385 | 0.66 | 0.461 | 0.469 | 0.442 | 0.383 | 0.482 | 0.459
0.926 | 0.496 | 0.559 | AAVDEYLEFRR [FAM221A_Y17_YF] | 1.14 | 0.395 | 0.517 | 0.601 | 0.531 | 0.421 | 0.963 | 0.949 | 1.47 | 0.756 | 0.409 | 0.722 | 1.28
0.821 | 0.788 | 0.519 | FLENFYDLKKD [MMP3_Y42_YF] | 1.24 | 0.453 | 0.563 | 0.452 | 0.551 | 0.472 | 1.02 | 2.57 | 1.92 | 0.922 | 0.549 | 0.663 | 1.9
0.77 | 0.794 | 0.721 | LKALHYMVQTS [SACS_Y3367] | 0.808 | 0.546 | 0.512 | 0.39 | 0.459 | 0.428 | 0.858 | 0.362 | 0.43 | 0.653 | 0.385 | 0.533 | 0.398
1.01 | 1.09 | 0.512 | MSRDIYSTDFF [NTRK1_Y676_YF] | 0.852 | 5.71 | 6.8 | 2.6 | 1.65 | 1.63 | 1.04 | 6.12 | 4.34 | 0.726 | 10.4 | 0.631 | 5.13
0.641 | 0.547 | 0.361 | VGEGPYLLSDL [ABCC12_Y7_I9L] | 0.839 | 0.461 | 0.559 | 0.484 | 0.605 | 0.508 | 0.941 | 0.565 | 0.432 | 0.83 | 0.385 | 0.586 | 0.71
0.955 | 1.28 | 6.8 | LTYHMYADPNF [SOS1_Y618] | 2.15 | 4.48 | 6.29 | 4.45 | 3.01 | 1.09 | 1.88 | 6.26 | 4.13 | 2.66 | 5.2 | 7.02 | 8.75
0.666 | 0.697 | 0.399 | DKTGEYPVPLI [ACADM_Y73] | 0.809 | 0.528 | 0.575 | 0.468 | 0.687 | 0.442 | 0.957 | 0.407 | 0.49 | 0.856 | 0.392 | 0.55 | 0.436
1.61 | 1.12 | 0.997 | PGIRMYQVQFN [LRFN1_Y454_YF] | 0.619 | 0.467 | 0.505 | 0.31 | 0.531 | 0.423 | 0.863 | 0.504 | 0.384 | 0.789 | 0.349 | 0.636 | 0.583
0.841 | 0.743 | 0.529 | PLTKVYVVEGS [ZMPSTE24_Y253] | 0.814 | 0.487 | 0.538 | 0.494 | 0.73 | 0.567 | 0.952 | 0.494 | 0.441 | 0.526 | 0.418 | 0.617 | 0.554
2.06 | 1.99 | 1.21 | LVLIKYLPEWT [PSEN1_Y240_F237L] | 1.19 | 0.827 | 0.611 | 0.547 | 1.08 | 0.597 | 1.43 | 0.501 | 0.569 | 1.44 | 0.56 | 1.07 | 0.463
0.792 | 0.853 | 0.504 | KDAGDYKFKAK [LRIT3_Y326_C328Y_YF] | 0.406 | 0.345 | 0.259 | 0.421 | 0.362 | 0.278 | 0.613 | 0.322 | 0.38 | 0.392 | 0.443 | 0.338 | 0.305
0.8 | 0.586 | 0.524 | AFPVSYSSSSA [RET_Y687_G691S] | 0.598 | 0.511 | 0.425 | 0.38 | 0.685 | 0.425 | 0.663 | 0.461 | 0.463 | 0.527 | 0.536 | 0.455 | 0.415
1.15 | 1.15 | 0.698 | LVMFIDAIFGM [SCN1A_Y1684_Y1684D] | 2.28 | 2 | 1.67 | 1.07 | 2.33 | 1.63 | 3.65 | 1.13 | 1.38 | 1.79 | 1.1 | 1.74 | 0.91
